B1: HDV Ribozyme (parent)
chain: GGCCGGCAUGGUCCCAGCCUCCUCGCUGGCGCCGGCUGGGCAACAUUCCGAGGGGACCGUCCCCUCGGUAAUGGCGAAUGGGACCCA

Variants of: B1
Test: self-cleavage, relative activity (ratio to wild type); higher = more cleavage; co-transcriptional

Row | Variant | self-cleavage
1 | U60G G73C | 0.323
2 | U60G U72A | 0.458
3 | C63A U79G | 0.682
4 | C61A U79C | 0.506
5 | C61G G80U | 0.275
6 | C61G G80C | 0.348
7 | U60G G67U | 1.07
8 | C63G C86U | 0.816
9 | C63G C86A | 0.95
10 | C61A C64U | 0.997
11 | U60C C85A | 0.712
12 | U60C C85U | 0.989
13 | C63G A71C | 0.782
14 | G59A G82U | 0.467
15 | G59C G67U | 1.09
16 | G59C G67A | 1.06
17 | C61G C84G | 0.386
18 | C61G C84U | 0.544
19 | C64G A70U | 0.978
20 | C61A U69C | 0.906
21 | C61A C75A | 0.136
22 | C63U C66G | 0.88
23 | C63U C84U | 0.726
24 | C63U C84G | 0.63

Row | Variant | self-cleavage
25 | U60C G73C | 0.465
26 | U60C G73U | 0.352
27 | C64A C85A | 0.623
28 | C64G C84U | 0.831
29 | C64G C84A | 0.718
30 | C63U C85G | 0.959
31 | C61U G80A | 0.242
32 | C61U G80U | 0.217
33 | C61G C66U | 1.08
34 | U60G A77G | 1.09
35 | C62U G67U | 1.02
36 | C62U G67C | 0.923
37 | U60C G74C | 0.217
38 | C61G G68C | 0.665
39 | G59U G76C | 1.08
40 | C63A G82C | 0.122
41 | U60C C66U | 0.997
42 | U60C A71G | 0.886
43 | C64U G80A | 0.397
44 | C61A A83C | 0.342
45 | U60A A87C | 1
46 | G59C G80C | 0.222
47 | C64G A87C | 0.778
48 | C64G A87U | 0.786

Row | Variant | self-cleavage
49 | C64G A87G | 0.853
50 | U60A G81C | 0.0811
51 | U60A G81U | 0.151
52 | C62A C66U | 0.597
53 | C62U C66U | 0.953
54 | G59C U60C | 0.937
55 | U60C A70G | 1.15
56 | C63G U69C | 0.567
57 | C63G U69G | 0.731
58 | C63G A78U | 0.185
59 | C64A C66U | 0.567
60 | C61G C75G | 0.113
61 | C61G C75A | 0.166
62 | C62U C86U | 0.845
63 | C62U A87G | 1.05
64 | C62U A87C | 1.11
65 | U60A U79G | 0.807
66 | C63U A70C | 1.07
67 | C63U G73C | 0.618
68 | G59U U65C | 1.15
69 | G59U C75A | 0.0314
70 | U60C A77G | 0.831
71 | U60C A77C | 0.575
72 | C63A A83C | 0.271

Row | Variant | self-cleavage
73 | G59U C63U | 1.04
74 | G59U C63G | 0.767
75 | C62A A71U | 0.892
76 | U60G U65C | 1.17
77 | U60G U65A | 0.95
78 | C64A G67U | 0.425
79 | C62G G76C | 0.937
80 | C62G G76U | 1.03
81 | C61U G68A | 0.727
82 | G59U G73A | 0.644
83 | C62A A77C | 0.623
84 | C63A A71C | 0.525
85 | C61A G73C | 0.415
86 | G59C G68C | 1.11
87 | C63G A87U | 0.71
88 | U60G G76U | 0.969
89 | C64A G81A | 0.386
90 | C61G G76U | 1.16
91 | U60A C85U | 0.912
92 | U60A C85G | 0.673
93 | C63G U79G | 0.692
94 | C64U C86A | 0.66
95 | C61G A78G | 0.831
96 | C64A C86G | 0.923

Row | Variant | self-cleavage
97 | C64A C86U | 0.886
98 | C61U C64G | 0.308
99 | C62G A78C | 0
100 | C63U U69A | 0.975
101 | C61U A70U | 1.02
102 | C62A G73U | 0.212
103 | C62A G68A | 0.842
104 | C62A G68U | 0.939
105 | C63U G81U | 0.361
106 | G59A G76A | 1.07
107 | C63A G80U | 0.2
108 | C64G G76A | 0.862
109 | C61A G68U | 0.623
110 | C62A G76U | 1.08
111 | C62G G82C | 0.204
112 | C63U A77U | 0.698
113 | C63U A77G | 0.882
114 | C62G U65A | 0.166
115 | C64U A87U | 0.804
116 | C61G G74A | 0.429
117 | C61G G74C | 0.225
118 | U60C G82U | 0.495
119 | G59U C86U | 0.852
120 | C61U G82U | 0.518

Row | Variant | self-cleavage
121 | G59A U72C | 0.607
122 | U60C G81U | 0.424
123 | C64U A77U | 0.674
124 | C64U A77C | 0.318
125 | G59U U79A | 0.929
126 | C61A A70G | 0.812
127 | C62G C86G | 1.14
128 | C63U A71U | 1.02
129 | C63U A71G | 1.03
130 | C61U G74A | 0.463
131 | C61U G74C | 0.253
132 | C61A C62G | 0.892
133 | C64A G68A | 0.537
134 | G59U A71C | 0.895
135 | C62G G67U | 0.423
136 | U60A U72A | 0.739
137 | C63A C86G | 1.02
138 | C63A C86U | 0.784
139 | C61G A77U | 0.394
140 | C63G C64G | 0.692
141 | G59U A87C | 1.17
142 | G59U A87U | 1.09
143 | C61G G67U | 0.649
144 | C61G G67C | 0.945

Row | Variant | self-cleavage
145 | C61U A71C | 0.746
146 | C64G A78C | 0.269
147 | C64G A78G | 0.527
148 | C61U C85U | 0.917
149 | C63G G73A | 0.424
150 | C63A C84U | 0.717
151 | C61A C85A | 1.09
152 | C61A C85U | 1.05
153 | G59A G81A | 0.472
154 | C63A G81A | 0.446
155 | C62A G81U | 0.266
156 | G59U G82U | 0.554
157 | G59U G67A | 1.05
158 | C61A A78G | 0.678
159 | C64G A77C | 0.431
160 | G59U | 0.997
161 | G59C | 1.01
162 | C61U A77G | 1.12
163 | C64G G81C | 0.208
164 | C61A U72G | 0.554
165 | C61A U72C | 0.686
166 | C64G U79G | 0.506
167 | C64G U79A | 0.692

Reference: the RNAGym collection of RNA variant scans (doi:10.7554/elife.80360)
